This is an account of results in patent publication US20050186604A1.

This assay addresses Myc transcription factor (UniProt P01106). The assay can be described thus: cell-based or functional assay.
Chain of UniProt P01106 (P01106 16-454 limits assumed): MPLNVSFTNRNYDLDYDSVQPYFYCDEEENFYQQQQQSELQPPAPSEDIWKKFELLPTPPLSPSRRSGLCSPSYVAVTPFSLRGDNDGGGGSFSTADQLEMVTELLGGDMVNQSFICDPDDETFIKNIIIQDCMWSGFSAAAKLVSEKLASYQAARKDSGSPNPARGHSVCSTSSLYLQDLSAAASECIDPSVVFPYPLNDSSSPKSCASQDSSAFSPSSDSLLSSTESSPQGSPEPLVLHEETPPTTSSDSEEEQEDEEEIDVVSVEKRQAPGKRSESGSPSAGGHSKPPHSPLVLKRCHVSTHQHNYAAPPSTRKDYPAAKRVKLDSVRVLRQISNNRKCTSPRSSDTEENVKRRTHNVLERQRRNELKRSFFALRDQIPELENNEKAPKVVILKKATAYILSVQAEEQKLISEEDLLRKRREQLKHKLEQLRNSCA

Chain of HTLV-1 p30^II (HA) (P0C214 whole entry): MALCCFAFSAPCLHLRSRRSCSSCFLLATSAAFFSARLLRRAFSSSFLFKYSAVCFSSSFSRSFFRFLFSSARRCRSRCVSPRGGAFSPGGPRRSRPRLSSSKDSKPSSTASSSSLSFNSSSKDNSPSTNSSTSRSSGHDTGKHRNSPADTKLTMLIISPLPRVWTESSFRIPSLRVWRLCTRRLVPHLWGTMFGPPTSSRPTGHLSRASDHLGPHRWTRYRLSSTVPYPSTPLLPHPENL

Consider HTLV-1 p30^II (HA), for which the trans-activation from the synthetic M4-tk-luc promoter (luciferase reporter, four tandem E-boxes) came out at 13 fold and the trans-activation from the synthetic M4-tk-luc promoter (luciferase reporter, four tandem E-boxes), higher p30^II concentrations lay within 5 to 7 fold.
